Assay results: patent US20100255008A1

B1: Antibody 15 (antibody, V domains shown)
VH: QVQLQESGPGLVKPSETLSLTCAVSGYSIRSGYWWSWIRQPPGKGLEWIGQIYNKGNTDNNPALKSRVTISVDTSKNQFSLKLSSVTAADTAVYYCARVFWDDAYFDVWGQGTMVTVSS
VL: EIVLTQSPATLSLSPGERATLSCKASQSVSIGPIHLMHWYQQKPGQAPRLLIYGASNPESGIPARFSGSGSGTDFTLTISSLEPEDFAVYYCQQGKESPRTFGQGTKLEIK
B2: Antibody 21 (antibody, V domains shown)
VH: QVQLQESGPGLVKPSETLSLTCAVSGYSIRSGYWWSWIRQPPGKGLEWIGQIYNKGNTDNNPALKSRVTISVDTSKNQFSLKLSSVTAADTAVYYCARVFWDDAYFDVWGQGTMVTVSS
VL: EIVLTQSPGTLSLSPGERATLSCKASQSVSIGPIHLMHWYQQKPGQAPRLLIYGASNPESGIPDRFSGSGSGTDFTLTISRLEPEDFAVYYCQQGKESPRTFGQGTKLEIK
B3: Antibody 17 (antibody, V domains shown)
VH: QVQLQESGPGLVKPSETLSLTCTVSGYSIRSGYWWSWIRQPPGKGLEWIGQIYNKGNTDNNPALKSRVTISVDTSKNQFSLKLSSVTAADTAVYYCARVFWDDAYFDVWGQGTMVTVSS
VL: EIVLTQSPATLSLSPGERATLSCKASQSVSIGPIHLMHWYQQKPGQAPRLLIYGASNPESGIPARFSGSGSGTDFTLTISSLEPEDFAVYYCQQGKESPRTFGQGTKLEIK
B4: Antibody 19 (antibody, V domains shown)
VH: QVQLQESGPGLVKPSETLSLTCAVSGYSIRSGYWWSWIRQQPGKGLEWIGQIYNKGNTDNNPALKSQVTISVDTSKNQFSLKLSSVTAADTAVYYCARVFWDDAYFDVWGQGTMVTVSS
VL: EIVLTQSPATLSLSPGERATLSCKASQSVSIGPIHLMHWYQQKPGQAPRLLIYGASNPESGIPARFSGSGSGTDFTLTISSLEPEDFAVYYCQQGKESPRTFGQGTKLEIK
B5: Antibody 24 (antibody, V domains shown)
VH: QVQLQESGPGLVKPSETLSLTCTVSGYSIRSGYWWSWIRQPPGKGLEWIGQIYNKGNTDNSPSLKSRVTISVDTSKNQFSLKLSSVTAADTAVYYCARVFWDDAYFDVWGQGTMVTVSS
VL: EIVLTQSPGTLSLSPGERATLSCKASQSVSIGPIHLMHWYQQKPGQAPRLLIYGASNPESGIPDRFSGSGSGTDFTLTISRLEPEDFAVYYCQQGKESPRTFGQGTKLEIK
B6: Antibody 26 (antibody, V domains shown)
VH: QVQLQESGPGLVKPSETLSLTCAVSGYSIRSGYWWSWIRQQPGKGLEWIGQIYNKGNTDNSPSLKSQVTISVDTSKNQFSLKLSSVTAADTAVYYCARVFWDDAYFDVWGQGTMVTVSS
VL: EIVLTQSPGTLSLSPGERATLSCKASQSVSIGPIHLMHWYQQKPGQAPRLLIYGASNPESGIPDRFSGSGSGTDFTLTISRLEPEDFAVYYCQQGKESPRTFGQGTKLEIK
B7: Antibody 23 (antibody, V domains shown)
VH: QVQLQESGPGLVKPSETLSLTCTVSGYSIRSGYWWSWIRQPPGKGLEWIGQIYNKGNTDNNPALKSRVTISVDTSKNQFSLKLSSVTAADTAVYYCARVFWDDAYFDVWGQGTMVTVSS
VL: EIVLTQSPGTLSLSPGERATLSCKASQSVSIGPIHLMHWYQQKPGQAPRLLIYGASNPESGIPDRFSGSGSGTDFTLTISRLEPEDFAVYYCQQGKESPRTFGQGTKLEIK
B8: Antibody 16 (antibody, V domains shown)
VH: QVQLQESGPGLVKPSETLSLTCAVSGYSIRSGYWWSWIRQPPGKGLEWIGQIYNKGNTDNSPSLKSRVTISVDTSKNQFSLKLSSVTAADTAVYYCARVFWDDAYFDVWGQGTMVTVSS
VL: EIVLTQSPATLSLSPGERATLSCKASQSVSIGPIHLMHWYQQKPGQAPRLLIYGASNPESGIPARFSGSGSGTDFTLTISSLEPEDFAVYYCQQGKESPRTFGQGTKLEIK
B9: Antibody 25 (antibody, V domains shown)
VH: QVQLQESGPGLVKPSETLSLTCAVSGYSIRSGYWWSWIRQQPGKGLEWIGQIYNKGNTDNNPALKSQVTISVDTSKNQFSLKLSSVTAADTAVYYCARVFWDDAYFDVWGQGTMVTVSS
VL: EIVLTQSPGTLSLSPGERATLSCKASQSVSIGPIHLMHWYQQKPGQAPRLLIYGASNPESGIPDRFSGSGSGTDFTLTISRLEPEDFAVYYCQQGKESPRTFGQGTKLEIK
B10: Antibody 20 (antibody, V domains shown)
VH: QVQLQESGPGLVKPSETLSLTCAVSGYSIRSGYWWSWIRQQPGKGLEWIGQIYNKGNTDNSPSLKSQVTISVDTSKNQFSLKLSSVTAADTAVYYCARVFWDDAYFDVWGQGTMVTVSS
VL: EIVLTQSPATLSLSPGERATLSCKASQSVSIGPIHLMHWYQQKPGQAPRLLIYGASNPESGIPARFSGSGSGTDFTLTISSLEPEDFAVYYCQQGKESPRTFGQGTKLEIK
B11: Antibody 22 (antibody, V domains shown)
VH: QVQLQESGPGLVKPSETLSLTCAVSGYSIRSGYWWSWIRQPPGKGLEWIGQIYNKGNTDNSPSLKSRVTISVDTSKNQFSLKLSSVTAADTAVYYCARVFWDDAYFDVWGQGTMVTVSS
VL: EIVLTQSPGTLSLSPGERATLSCKASQSVSIGPIHLMHWYQQKPGQAPRLLIYGASNPESGIPDRFSGSGSGTDFTLTISRLEPEDFAVYYCQQGKESPRTFGQGTKLEIK
B12: Antibody 18 (antibody, V domains shown)
VH: QVQLQESGPGLVKPSETLSLTCTVSGYSIRSGYWWSWIRQPPGKGLEWIGQIYNKGNTDNSPSLKSRVTISVDTSKNQFSLKLSSVTAADTAVYYCARVFWDDAYFDVWGQGTMVTVSS
VL: EIVLTQSPATLSLSPGERATLSCKASQSVSIGPIHLMHWYQQKPGQAPRLLIYGASNPESGIPARFSGSGSGTDFTLTISSLEPEDFAVYYCQQGKESPRTFGQGTKLEIK
B13: TW212 (antibody)
VL: DIVLTQSPAYLTMSPGQTTTISCKASQSVSIGPIHLMHWYQQKPGQPPRLLIYGASNPESGVPARFSGSGSGTDFTLTIHPVEADDAATYFCQQGKESPRTFGPGTKLEITRADAKPTVSIFPPSSEQLGTGSATLVCFVNNFYPKDINVKWKVDGSEKRDGVLQSVTDQDSKDSTYSLSSTLSLTKADYERHNLYTCEVTHKTSTAAIVKTLNRNEC
VH: QVQLQESGPGLLKPAQSLSLTCTVTGYSIRSGYWWSWIRQQPGKGLEWMGQIYNKGNTDNNPSLKSQITMTVDTSKNQFFLRLRSVTTEDTAVYYCARVFWDDAYFDVWGQGIQVTVSSATTTAPSVYPLAPACDSTTSTTNTVTLGCLVKGYFPEPVTVSWNSGALTSGVHTFPSVLHSGLYSLSSSVTVPSSTWPSQTVTCNVAHPASSTKVDKKIVPGDGSGCKPCTCPGPEVSSVFIFPPKPKDVLTISLSPKVTCVVVDISQDDPEVQFSWFIDGKEVHTAVTQPREEQFNSTYRMVSVLPILHQDWLNGKEFKCKVNSPAFPVPIEKTISKRRGQLQVPQVYTMPPPKEQLTQSQVSLTCMIKGFYPEDIDVAWQKNGQPEQSFKNTPPVLDTDETYFLYSKLDVKKDDWEKGDTFTCSVVHEALHNHHTEKTLSQRPGK
B14: TW205 (antibody, V domains shown)
VH: QIHLQESGLGLVKPSQSLTLTCSVTGFSITTPDYSWHWIRQFPGQTLEWMGFLYYEGDTYYNPSLKSRISIARDASKNQFFLQLKSVTTEDTATYFCVRRKYSGYGNWFAYWGQGTQVTVSS
VL: QPVLTQAPSASASLRASVKLTCTLSSQHSTYYIEWYQQHPDKAPRYVMYVDSDGSHIKGDGVPDRFSGSSSGARRYLSISNLQPEDEAIYHCGVYDSTAGAVFGSGTQLTVLG
B15: TW202 (antibody, V domains shown)
VH: QLQLQESGLGLVKPSQSLTLTCSVTGFSITTPDYSWHWIRQLPGQTLEWMGFLYYEGDTYYNPSLKSRISIARDASKNQFFLQLKAVTTEDTATYFCARRKYSGYGNWFAYWGQGTLVTVSL
VL: QPVLTQSPSASASLRASVKLTCTLSSQHSTYYIEWYQQRPDKAPKYVMYLDSDGSHIKGDGIPDRFSGSSSGAHRYLSISNLQPEDEAIYHCGVYDSTAGAVFGSGTQLTVLG

These binders were tested against Mouse soluble TWEAK (mouse) (UniProt O54907) (assay: receptor interaction ELISA: antibody pre-incubated with mouse soluble TWEAK, binding to coated mouse Fn14:Fc).

B1 and B2 are the same in IC50: 5 ng/mL for the first, 5 ng/mL for the second.

B3 and B4 are within 1.5-fold of each other in IC50: 6 ng/mL for the first, 7 ng/mL for the second.

Compared with B5, B6 is 4.5-fold higher in IC50: 8 ng/mL for the first, 36 ng/mL for the second.

B7 and B8 are within 1.5-fold of each other in IC50: 6 ng/mL for the first, 7 ng/mL for the second.

B9 and B10 are within 1.5-fold of each other in IC50: 18 ng/mL for the first, 14 ng/mL for the second.

B11 and B12 are within 1.5-fold of each other in IC50: 5 ng/mL for the first, 6 ng/mL for the second.

B13 and B14 are within 1.5-fold of each other in IC50: 4.6 ng/mL for the first, 5.1 ng/mL for the second.

In the case of B15, the IC50 is reported as 9 ng/mL.
